# Tests used:
# [1] = biological target: the molecule itself; experiment: cross-linking; 15 μM αBc or Hsp27 incubated with 15 or 75 μM DA in 50 mM phosphate, 150 mM NaCl, pH 7.4, 24 h, 37 °C, aerobic; excess DAox removed (10 kDa filter); SDS-PAGE with DTT and boiling
# [2] = biological target: the molecule itself; experiment: negative-stain transmission electron microscopy; 30 μM αBc or Hsp27 incubated with 0 or 150 μM DAox; particle diameters measured
# [3] = biological target: the molecule itself; experiment: cross-linking; lysine-dimethylated and non-methylated sHsps reacted with a 0, 1, 5, 7.5, 10 or 20 molar excess of DA, 37 °C, 24 h, 50 mM phosphate buffer, pH 7.4; SDS-PAGE, monomer band quantified
protein,measurement,setting,value
"oxidized dopamine-modified αB-crystallin (natural protein, human, UniProt P02511 1-175, looked up, modified and covalently cross-linked by oxidized dopamine (DAox); lysine residues involved in the cross-links; sites not mapped, αB-crystallin (HspB5), human small heat-shock protein; monomeric subunit mass 20.2 kDa; same protein as m1; Made at several molar ratios of αBc to DA (1:1, 1:5, 1:10, 1:20, 1:30); All ratios are kept as one molecule; the ratio is named in each row; also called αBc:DAox; DAox-modified αBc) MDIAIHHPWIRRPFFPFHSPSRLFDQFFGEHLLESDLFPTSTSLSPFYLRPPSFLRAPSWFDTGLSEMRLEKDRFSVNLDVKHFSPEELKVKVLGDVIEVHGKHEERQDEHGFISREFHRKYRIPADVDPLTITSSLSSDGVLTVNGPRKQVSGPERTIPITREEKPAVTAAPKK",binding result,[1],binds
"αB-crystallin (natural protein, human, UniProt P02511 1-175, looked up, αB-crystallin (HspB5), human small heat-shock protein; monomeric subunit mass 20.2 kDa; Lys174 and Lys175 at the extreme C-terminus; Heterogeneous large oligomer in solution; also called HspB5; native αBc; source: expressed and purified as previously described [9,40,41]) MDIAIHHPWIRRPFFPFHSPSRLFDQFFGEHLLESDLFPTSTSLSPFYLRPPSFLRAPSWFDTGLSEMRLEKDRFSVNLDVKHFSPEELKVKVLGDVIEVHGKHEERQDEHGFISREFHRKYRIPADVDPLTITSSLSSDGVLTVNGPRKQVSGPERTIPITREEKPAVTAAPKK",binding result,[2],binds
"methylated αBc reacted with DAox (natural protein, human, UniProt P02511 1-175, looked up, dimethylation of all lysine residues (and the amino terminus), confirmed by mass spectrometry; then modified by oxidized dopamine (DAox), αB-crystallin (HspB5), human small heat-shock protein; same protein as m1; Reacted with a 0, 1, 5, 7.5, 10 or 20 molar excess of DA; also called lysine-dimethylated αBc) MDIAIHHPWIRRPFFPFHSPSRLFDQFFGEHLLESDLFPTSTSLSPFYLRPPSFLRAPSWFDTGLSEMRLEKDRFSVNLDVKHFSPEELKVKVLGDVIEVHGKHEERQDEHGFISREFHRKYRIPADVDPLTITSSLSSDGVLTVNGPRKQVSGPERTIPITREEKPAVTAAPKK",binding result,[3],binds
